In PMC5433095 (mBio, 2017):

Legend:
[1] = target: T1, E1E2 glycoprotein complex on infectious cell culture-derived HCV particles (HCVcc) of strain JFH-1 (Hepatitis C virus genotype 2a, isolate …, UniProt Q99IB8); assay: immunocapture of virus particles; settings: one partner purified
T1 construct: source: concentrated HCVcc of infectious HCV strain JFH-1

[2] = target: genotype 2a JFH1 E1E2 displayed on retrovirus-based HCV pseudoparticles (HCVpp) (Hepatitis C virus genotype 2a, isolate …, UniProt Q99IB8); assay: immunocapture of virus particles; settings: one partner purified

B1: MAb DAO5 IgG (antibody, V domains shown)
VH: EVQLQQSGPELVKPGASLKISCKTSGYTFTDFTFHWVKLSHGPSLEWIGTIKPSNGDTAYNQKFKGKATLSVDKSASTAHIEFRSLTSEDSAVYFCARFGGSYPYAMDYWGQGTSVIVSS
VL: DIVLTQSPATLSVTPGDRVSLSCRASQGIYNYVHWFQQKSHESPRLLIKYASQSISGIPSRFSGSGSGTDFTLSINSVESEDFGMYFCQQTNKWPLTFGAGTKLELK
B1: binds [1]; binds [2].
